{
  "source": "the RNAGym collection of RNA variant scans (doi:10.1073/pnas.2313332121)",
  "parents": {"B1": {"name": "TPR t1 (parent)", "chain": "GACCAAUCUGCCCUCAGAGCUCGAGAACAUCUUCGGAUGCAGAGGAGGCAGGCUUCGGUGGCGCGAUAGCGCCAACGUCCUCAACCUCCAAUGCAUCCCACCACAUGAUGAUGCCUGAAGAGCCUUGGUUUUUUG"}},
  "data": [
    {"variants_of": "B1", "assay": "polymerase ribozyme fitness, log enrichment relative to wild type (log ratio); higher = more active; in vitro selection for triplet polymerase activity", "procedure,_shortened": "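Mutant libraries for each subunit of a heterodimeric triplet polymerase ribozyme were made by PCR and then transcribed. Each library underwent one round of in vitro selection in triplicate: annealing with a biotinylated primer, the partner subunit and triplets, frozen incubation at −7 °C, gel excision of extended constructs, streptavidin-bead capture and RT-PCR. Input and output libraries were Illumina-sequenced, and only genotypes with ≥10 input reads and ≥1 read per output were kept. Fitness is the logarithm, base 2, of genotype enrichment over wild-type enrichment, computed from inverse-variance-weighted replicate averages.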", "values": [
      {"variant": "GAGCAAUCUGCCCUCAGAGCUCGAGAACAUCUUCGGAUGCAGAGGAGGCAGGCUUCGGUGGCGCGAUAGCGCCAACGUCCUCAACCUCCAAUGCGUCCCACCACAUGAUGAUGCCUGAAGAGCCUUGGUUUUUUG", "note": "[C3G A95G]", "polymerase ribozyme fitness (log ratio)": -2.02},
      {"variant": "GAACAAUCUGCCCUCAGAGCUCGAGAACAUCUUCGGAUGCAGAGGAGGCAGGCUUCGGUGGCGCGAUAGCGCCAACGUCCUCAACCUCCAAUGCAUCCCACCAUAUGAUGAUGCCUGAAGAGCCUUGGUUUUUUG", "note": "[C3A C104U]", "polymerase ribozyme fitness (log ratio)": -0.516},
      {"variant": "GAACAAUCUGCCCUCAGAGCUCGAGAACAUCUUCGGAAGCAGAGGAGGCAGGCUUCGGUGGCGCGAUAGCGCCAACGUCCUCAACCUCCAAUGCAUCCCACCACAUGAUGAUGCCUGAAGCGCCUUGGAUUUUUG", "note": "[C3A U38A A121C U129A]", "polymerase ribozyme fitness (log ratio)": -0.064},
      {"variant": "GAACAAUCUGCCCUCAGAGCUCGAGAACAUCUUCGGAUGCAGAGAAGGCAGGCUUCGGUGGCGCGAUAGCGCCAACGUCCUCAACCUCCAAUGCAUCCCACCACAUGAUGAUGCCUGAAGAGCCUUGGUUUUUUG", "note": "[C3A G45A]", "polymerase ribozyme fitness (log ratio)": -2.42},
      {"variant": "GAACAAUCUGCCCUCAGAGCUCGAGAACAUCUUCGGAUGCAGAGGAGGCAGGCUUCGGUGGCGCGAUAGCGACAACGUCCUCAACCUCCAAUGCAUCCCACCACAUGAUUAUGCCUGAAGAGCCUUGGUUUUUUG", "note": "[C3A C72A G110U]", "polymerase ribozyme fitness (log ratio)": -3.62},
      {"variant": "GAGCAAUCUGCCCUCAGCGCUAGAGGACAUCUUCGGAUGCAGAGGAGGCAGGCUUCGGUUGCGCGAUAGCGCCAACGUCCUCAACCUCCAAUGCUUCCCACCACAUGAUGAUGCCUGAAAAGCCUUGGUUUUUUG", "note": "[C3G A18C C22A A26G G60U A95U G120A]", "polymerase ribozyme fitness (log ratio)": -4.84},
      {"variant": "GAACAAUCUGCCCUCAGAGCUCGAUAACAUCUUCGGAUGCAGAGGAGGCAGGCUUCGCGGGCGCGAUAGCGCCAACGUCCUCAACCUCCAAUGCAUUCCACCACAUGAUGAUGCCUGAAGAGACUUGGUUUUUUU", "note": "[C3A G25U G58C U59G C97U C123A G135U]", "polymerase ribozyme fitness (log ratio)": -6.86},
      {"variant": "GAACAAUCUUCCCUCAGAGCUCGAGAACAUCUUCGGAAGCAGAGGAGGUAGGCUUCGGUGGCGCGAUAGCGCCAACGUCCUUAACCUCCAAUGCAUCCCACCACAUGAUGAUGCCUGAAGAGCCUUGAUUGUUUG", "note": "[C3A G10U U38A C49U C82U G128A U131G]", "polymerase ribozyme fitness (log ratio)": -1.74},
      {"variant": "GAACAAUCUGCCCUCAGAGCUCGAGAACAUCUUCGGAUGCAGAGGAGGCAGGCUUCGGUGGCGCGAUAGCGCCAACGUCCUCAACCUCCAAUGCAUCCCACCACAUGAUGAUGCCUGAAAAGCCUUGGUCUUUUG", "note": "[C3A G120A U130C]", "polymerase ribozyme fitness (log ratio)": 0.403},
      {"variant": "GAGCAAUCUGCCCUCAGAGCUCGGGAACAUCUUCGGAUGCAGAGGAGGCAGGCUUCGGUGGCGCGAUAGCGCCAACGUCCUCAACCUCCAAUGCAUCCCACCACAUGAUGAUGCCUGAAGAGCCUUGGUUUUUUG", "note": "[C3G A24G]", "polymerase ribozyme fitness (log ratio)": -3.73},
      {"variant": "GAGCAAUCUGCCCUCAGAGCUCGAGAACAUCUUCGGAUGCAGAGGAGGCCGGCUUCGGUGGCGCGAUAGCGCAAACGUCCUCAACCUCCAAUGCUUCCCACCACAUGAUGAUGCCUGAAGAGCCUUGGUUUUUUG", "note": "[C3G A50C C73A A95U]", "polymerase ribozyme fitness (log ratio)": -2.64},
      {"variant": "GAACAAUCUGCCCUCAGAGCUCGAGAACAUCUUCGGAUGCAGAGUAGGCAGGCUUCUGUGGCGCGAUAGCGCCAACGUCCUUAACCUCCAAUGCAUCCCACCAAAUGAUGAUGCCUGAAGAGACUUGGUUUUUUG", "note": "[C3A G45U G57U C82U C104A C123A]", "polymerase ribozyme fitness (log ratio)": -4.01},
      {"variant": "GAACAAUCUGCCCUCAGAGCUCGAGAACAUCUUCGGAUGCAGAUGAGGCAGGCUUCGGUGGCCCGAUAGCGCCAACGUCCUCAACCUCCAAUGCAUCCCACCACAUGAUGAUGCCUGAAGAGCCUUGGUUUUUUG", "note": "[C3A G44U G63C]", "polymerase ribozyme fitness (log ratio)": -3.25},
      {"variant": "GAACAAUCUGCCCUCAGAGCUCGAGAACAUCUUCGGAUGCAGAGGAGGCAGGCUUCGGUGGCGCGAUAGCCCCAACGUCCUCAACCUCCAAUGCAUCCCACCACAUGAUGAUGGCUGAAGAGCCUUGGUUUUUUG", "note": "[C3A G71C C114G]", "polymerase ribozyme fitness (log ratio)": -4.21},
      {"variant": "GAGCAAUCUGCCCUCAGAGCUCGAGAACAUCUUCGGAUGCAGUGGAGGCAGGCUUCGGUGGCGCGAUAGCGCCAACGUCCUCAACCUCCAAUGCAUCCCACCACAUGAUGAUGCCUGAAGAGCCUUGGUUUUUUG", "note": "[C3G A43U]", "polymerase ribozyme fitness (log ratio)": -3.88},
      {"variant": "GAACAAUCUGCCCUCAGAGCUCGAGAACAUCUUCGGAUGCAGACGAGGCAGGUUUCGGUGGCGCGAUAGCGCCAACGUCCUCAACCUCCAAUGCAUCCCACCACAUGAUGAUGCCUGAAGAGACUUGGUUUUUUG", "note": "[C3A G44C C53U C123A]", "polymerase ribozyme fitness (log ratio)": -1.67},
      {"variant": "GAACAAUCUGCCCUCAGAGCUCGAGAACAUCAUCGGAUGCAGAGGAGGCAGGCUUCGGUGGCGGGAUAGCGCCAACGUCCUCAACCUCCAAUGCAUCCAACCACAUGAUGAUGCCUGAAGAGCCUUGGUUUUUUG", "note": "[C3A U32A C64G C99A]", "polymerase ribozyme fitness (log ratio)": -7.73},
      {"variant": "GAGCAAUCUGCCCUCAGAGCUCGAGAACAUCUUCGGUUGCAGAGGAGGCAGGCUUCGGUGGAGCGAUAGCGCCAACGUCCUCAACCUCCAAUGCUUCCCACCACAUGAUGAUGCCUGAACAGCCUUGGUUUUUUG", "note": "[C3G A37U C62A A95U G120C]", "polymerase ribozyme fitness (log ratio)": -3.27},
      {"variant": "GAACAAUCUGCCCUCAGAGCUCGAGAACAUCUACGGAUGCAGAGGAGUCAGGCUUCGGUGGCGCGAUAGCGCCAACGUCCUCAACCUCCAAUGCAUCCCACCACAUGAUGAUGCCUGAAGCGCGUUGGUUUUUUG", "note": "[C3A U33A G48U A121C C124G]", "polymerase ribozyme fitness (log ratio)": -4.93},
      {"variant": "GAACAAUCGGCCCUCACAGCUCGAGAACAUCUUCGGAUGCAGAGGAGGCAGGCGUCGGUGGCGCGAUAUCGCCAACGUCCUCAACCUCCAAUGCAUCCCACCACCUGAUGAUGCCUAAAGAGCCUUGGUUUUUUG", "note": "[C3A U9G G17C U54G G69U A105C G117A]", "polymerase ribozyme fitness (log ratio)": -5.55},
      {"variant": "GAACAAUCUGCCCUCAGAGCUCGAGAACAUCUUCGCAUGCAGAGGAGGCAGGCUUCGGUGGCGCGAUAGGGCCAACGUCCUCAACCUCCAAUGCAUCCCACCACAUGAUGAUGCCUGAAAUGCCUUGGUUUUUUG", "note": "[C3A G36C C70G G120A A121U]", "polymerase ribozyme fitness (log ratio)": -3.08}
    ]}
  ]
}
